Data from article PMC12685063.

Molecular target: Shigella flexneri LptDE complex (SfLptDE), His6 tag on LptE (Shigella flexneri)
Assay: SEC

Q: For “receptor binding protein (RBP) of the small siphophage Oekolampad (bas018) (natural protein)”, which percent RBP (Oeko) binding (complex formation after 48 h, band densitometry against LptE) is on record?
A: 15 to 35%
